One protein from FireProtDB (doi:10.1021/bi982828s) can be followed below.

Several values for one entry are separate records, joined by “and”; a condition that tells them apart may be missing. Equal entries are not always repeated.

The conditions of the series: Arachis hypogaea, Thermal, DSC, Sodium phosphate 0.05 M, NaCl 0.15 M, transition: 3, reversible: yes, whole UniProt chain shown.

B1: Galactose-binding lectin wild type, P02872 (protein)
chain: MKPFCVFLTFFLLLAASSKKVDSAETVSFNFNSFSEGNPAINFQGDVTVLSNGNIQLTNLNKVNSVGRVLYAMPVRIWSSATGNVASFLTSFSFEMKDIKDYDPADGIIFFIAPEDTQIPAGSIGGGTLGVSDTKGAGHFVGVEFDTYSNSEYNDPPTDHVGIDVNSVDSVKTVPWNSVSGAVVKVTVIYDSSTKTLSVAVTNDNGDITTIAQVVDLKAKLPERVKFGFSASGSLGGRQIHLIRSWSFTSTLITTTRRSIDNNEKKIMNMASA
Take B1: the Tm (pH 5.5) was 56.9 °C and 61.2 °C; the Tm (pH 6) worked out at 57.5 °C; the Tm (pH 6.5) is 58 °C and 62.5 °C; the melting temperature (Tm) (pH 7) worked out at 58.5 °C; the midpoint of thermal melting (Tm) (pH 7.8) was 60.1 °C and 64.4 °C; the Tm (pH 8.2) was 61.2 °C and 65 °C. Further, the “unfolding enthalpy (calorimetric)” value by setting is: (pH 5.5) 212 kcal/mol and 113 kcal/mol; (pH 6) 218 kcal/mol; (pH 6.5) 225 kcal/mol and 121 kcal/mol; (pH 7) 231 kcal/mol; (pH 7.8) 245 kcal/mol and 132 kcal/mol; (pH 8.2) 251 kcal/mol and 135 kcal/mol. Also, the “unfolding enthalpy (van 't Hoff)” value (pH 7.4) is 75.1 kcal/mol and 149 kcal/mol.
